Like-named read-outs stand apart in the source and are kept apart here.
T1: Recombinant human IL-18 (human, UniProt Q14116 37-193)
T1 construct: Used unlabeled or biotinylated depending on the assay step; also called Hu IL-18; hr IL-18
T1 sequence: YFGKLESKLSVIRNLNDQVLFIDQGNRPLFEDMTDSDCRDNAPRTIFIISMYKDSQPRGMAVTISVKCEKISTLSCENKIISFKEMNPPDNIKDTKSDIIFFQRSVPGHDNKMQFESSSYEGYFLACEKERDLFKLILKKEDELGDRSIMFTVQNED

T2: Native human IL-18 (human, UniProt Q14116 37-193)
T2 sequence: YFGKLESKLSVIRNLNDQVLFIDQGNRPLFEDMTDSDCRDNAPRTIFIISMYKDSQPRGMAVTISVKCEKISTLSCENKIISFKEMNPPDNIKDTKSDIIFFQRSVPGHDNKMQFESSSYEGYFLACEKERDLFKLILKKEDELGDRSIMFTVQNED

T3: Recombinant cynomolgus IL-18 (cynomolgus monkey, UniProt Q14116 37-193 (human entry))
T3 chain: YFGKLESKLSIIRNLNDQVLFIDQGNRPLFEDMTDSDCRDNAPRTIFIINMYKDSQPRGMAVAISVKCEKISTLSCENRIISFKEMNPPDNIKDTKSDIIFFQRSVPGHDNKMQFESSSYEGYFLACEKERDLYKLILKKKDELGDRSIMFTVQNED


Assays:
Recombinant human IL-18 [1] = target: T1, Recombinant human IL-18; experiment: solution equilibrium titration (SET), ECL detection
Method: (§1) Goat-anti-human (Fab)₂ fragment specific antibodies (Dianova) were labeled with MSD SULFO-TAG™ NHS-Ester (Meso Scale Discovery, Gaithersburg, Md., USA) according to the manufacturer's instructions. Experiments were carried out in polypropylene microtiter plates and phosphate-based assay buffer. Unlabeled human IL-18 was serially diluted, starting with a concentration at least 10 times higher than the expected KD. Wells without antigen were used to determine Bₘₐₓ values; wells with assay buffer were used to determine background. After addition of a constant amount of antibodies or fragment thereof (e.g. 10 pM final concentration in 60 μl final volume), the mixture was incubated over night at RT.
(§2) Streptavidin MSD plates were blocked with BSA-containing phosphate buffer over night. After blocking of the plate, biotinylated human IL-18 was added and incubated for 1 h at RT. Subsequently the equilibrated samples were transferred to those plates and incubated for a short time at RT. After washing, MSD SULFO-TAG labeled detection antibody (goat anti-human (Fab)₂) was added to the MSD plate and incubated for a short time at RT.
(§3) Where IL-18 from cynomolgus monkey (cm IL-18) was also tested, the resulting KD are indicated in brackets.

Native human IL-18 [2] = target: T2, Native human IL-18; experiment: cell-based or functional assay
Recombinant human IL-18 [3] = target: T1, Recombinant human IL-18; experiment: cell-based or functional assay
Native human IL-18 [4] = target: T2, Native human IL-18; experiment: cell-based or functional assay; remark: listed apart in the source
Recombinant human IL-18 [5] = target: T1, Recombinant human IL-18; experiment: cell-based or functional assay; remark: listed apart in the source
[6] = target: T3, Recombinant cynomolgus IL-18; experiment: cell-based or functional assay
Recombinant human IL-18 [7] = target: T1, Recombinant human IL-18; experiment: solution equilibrium titration (SET), ECL detection; human IL-18; unbracketed value, column Hu IL-18
Method: as §1, §2, §3

[8] = target: T3, Recombinant cynomolgus IL-18; experiment: solution equilibrium titration (SET), ECL detection; value in brackets = cynomolgus IL-18; bracketed value
Method: as §1, §2, §3

Native human IL-18 [9] = target: T2, Native human IL-18; experiment: cell-based or functional assay; remark: listed apart in the source
Recombinant human IL-18 [10] = target: T1, Recombinant human IL-18; experiment: cell-based or functional assay; remark: listed apart in the source

Row | Binder | Kd (Recombinant human IL-18 [1]) [pM] | IC50, inhibition of IFN-γ release, human whole blood, LPS/IL-12 (native IL-18) (Native human IL-18 [2]) [nM] | IC50, inhibition of IFN-γ release, human whole blood, recombinant human IL-18 (7 nM) (Recombinant human IL-18 [3]) [nM] | IC50, inhibition of IFN-γ release, PBMC, Native IL-18 (LPS/IL-12) (Native human IL-18 [4]) [nM] | IC50, inhibition of IFN-γ release, KG-1 cells, Hu IL-18 (1 nM) (Recombinant human IL-18 [5]) [nM] | IC50, inhibition of IFN-γ release, PBMC, Hu IL-18 (recombinant) (Recombinant human IL-18 [5]) [nM] | IC50, inhibition of IFN-γ release, KG-1 cells, Cyno IL-18 [6] [nM] | Kd (Recombinant human IL-18 [7]) [pM] | Kd [8] [pM] | IC50, inhibition of IFN-γ release, KG-1 cells, Hu IL-18 (0.5 nM) (Recombinant human IL-18 [5]) [nM] | IC50, inhibition of IFN-γ release, KG-1 cells, Cyno IL-18 (0.2 nM) [6] [nM] | IC50, inhibition of IFN-γ release, PBMC, Native IL-18 (LPS/IL-12) (Native human IL-18 [9]) [nM] | IC50, inhibition of IFN-γ release, KG-1 cells, Hu IL-18 (1 nM) (Recombinant human IL-18 [10]) [nM]
1 | MOR10501 (antibody, human IgG1, lambda, L234A L235A, V domains shown, also called MOR010501) VH: EVQLQESGPGLVKPGETLSLTCTVSGGSISTGSYYWNWIRQAPGKGLEWIGEIWHSGPTFYNPSLKSRVTISVDTSKNQFSLKLSSVTAADTAVYYCARTTRYWMSHILAYGMDYWGQGTLVTVSS VL: DIVLTQPPSVSGAPGQRVTISCSGSSSNIGNHYVSWYQQLPGTAPKLLIYANTKRPSGVPDRFSGSKSGTSASLAITGLQSEDEADYYCSSYDGSQSIVFGGGTKLTVLG | 1 | 101 | 20.3 | 1.3 | 0.3 | 6.3 | 0.2 |  |  |  |  |  | 
2 | MOR13363 (antibody, human IgG1, kappa, L234A L235A, V domains shown) VH: QVQLLESGGGLVQPGGSLRLSCAASGFTFSSYAIHWVRQAPGKGLEWVSVISGEGSNTYYADSVKGRFTISRDNSKNTLYLQMNSLRAEDTAVYYCARVMIGYGFDYWGQGTLVTVSS VL: DIQMTQSPSSLSASVGDRVTITCRASQSIFNYLNWYQQKPGKAPKLLIYDSSTLQSGVPSRFSGSGSGTDFTLTISSLQPEDFATYYCLQYSGFLFTFGQGTKVEIKR |  | 91.7 | 29.4 | 0.18 |  |  |  | 10 | 10 | 0.49 | 0.28 |  | 
3 | MOR9464_N30I (antibody, human IgG1, lambda, L234A L235A, V domains shown) VH: EVQLVQSGAEVKKPGSSVKVSCKASGGTFISYAISWVRQAPGQGLEWMGNIIPMTGQTYYAQKFQGRVTITADESTSTAYMELSSLRSEDTAVYYCARAAYHPLVFDNWGQGTLVTVSS VL: DIVLTQPPSVSGAPGQRVTISCSGSSSNIGNHYVNWYQQLPGTAPKLLIYRNNHRPSGVPDRFSGSKSGTSASLAITGLQSEDEADYYCQSWDYSGFSTVFGGGTKLTVLG |  | 13.2 | 11.4 |  |  |  |  |  |  |  |  | 0.11 | 0.32
4 | MOR9464_N30G (antibody, human IgG1, lambda, L234A L235A, V domains shown) VH: EVQLVQSGAEVKKPGSSVKVSCKASGGTFGSYAISWVRQAPGQGLEWMGNIIPMTGQTYYAQKFQGRVTITADESTSTAYMELSSLRSEDTAVYYCARAAYHPLVFDNWGQGTLVTVSS VL: DIVLTQPPSVSGAPGQRVTISCSGSSSNIGNHYVNWYQQLPGTAPKLLIYRNNHRPSGVPDRFSGSKSGTSASLAITGLQSEDEADYYCQSWDYSGFSTVFGGGTKLTVLG |  | 15.1 | 25.1 |  |  |  |  |  |  |  |  | 0.11 | 0.54
5 | MOR9464_N30L (antibody, human IgG1, lambda, L234A L235A, V domains shown) VH: EVQLVQSGAEVKKPGSSVKVSCKASGGTFLSYAISWVRQAPGQGLEWMGNIIPMTGQTYYAQKFQGRVTITADESTSTAYMELSSLRSEDTAVYYCARAAYHPLVFDNWGQGTLVTVSS VL: DIVLTQPPSVSGAPGQRVTISCSGSSSNIGNHYVNWYQQLPGTAPKLLIYRNNHRPSGVPDRFSGSKSGTSASLAITGLQSEDEADYYCQSWDYSGFSTVFGGGTKLTVLG |  | 15.5 | 9.85 |  |  |  |  |  |  |  |  | 0.05 | 0.23

Results, then the binder that gave them:

Row | Kd (Recombinant human IL-18 [1]) [pM] | IC50, inhibition of IFN-γ release, human whole blood, LPS/IL-12 (native IL-18) (Native human IL-18 [2]) [nM] | IC50, inhibition of IFN-γ release, human whole blood, recombinant human IL-18 (7 nM) (Recombinant human IL-18 [3]) [nM] | IC50, inhibition of IFN-γ release, PBMC, Native IL-18 (LPS/IL-12) (Native human IL-18 [4]) [nM] | IC50, inhibition of IFN-γ release, KG-1 cells, Hu IL-18 (1 nM) (Recombinant human IL-18 [5]) [nM] | IC50, inhibition of IFN-γ release, PBMC, Hu IL-18 (recombinant) (Recombinant human IL-18 [5]) [nM] | IC50, inhibition of IFN-γ release, KG-1 cells, Cyno IL-18 [6] [nM] | Kd (Recombinant human IL-18 [7]) [pM] | Kd [8] [pM] | IC50, inhibition of IFN-γ release, KG-1 cells, Hu IL-18 (0.5 nM) (Recombinant human IL-18 [5]) [nM] | IC50, inhibition of IFN-γ release, KG-1 cells, Cyno IL-18 (0.2 nM) [6] [nM] | IC50, inhibition of IFN-γ release, PBMC, Native IL-18 (LPS/IL-12) (Native human IL-18 [9]) [nM] | IC50, inhibition of IFN-γ release, KG-1 cells, Hu IL-18 (1 nM) (Recombinant human IL-18 [10]) [nM] | Binder
6 | 4 | 110 | 17.9 | 2.3 | 0.4 | 6.3 | 0.2 |  |  |  |  |  |  | MOR10502 (antibody, human IgG1, lambda, L234A L235A, V domains shown, also called MOR010502) VH: EVQLQESGPGLVKPGETLSLTCTVSGGSISTGSYYWNWIRQAPGKGLEWIGEIHGHGFTFYNPSLKSRVTISVDTSKNQFSLKLSSVTAADTAVYYCARTTRYWMSHILAYGMDYWGQGTLVTVSS VL: DIVLTQPPSVSGAPGQRVTISCSGSSSNIGNHYVSWYQQLPGTAPKLLIYANTKRPSGVPDRFSGSKSGTSASLAITGLQSEDEADYYCSSYDGSQSIVFGGGTKLTVLG
7 | 2 | 108 | 16.1 | 1.8 | 0.3 | 5.8 | 0.3 |  |  |  |  |  |  | MOR10497 (antibody, human IgG1, lambda, L234A L235A, V domains shown, also called MOR010497) VH: EVQLQESGPGLVKPGETLSLTCTVSGGSISTGSYYWNWIRQAPGKGLEWIGEIQSPGYTFYNPSLKSRVTISVDTSKNQFSLKLSSVTAADTAVYYCARTTRYWMSHILAYGMDYWGQGTLVTVSS VL: DIVLTQPPSVSGAPGQRVTISCSGSSSNIGNHYVSWYQQLPGTAPKLLIYANTKRPSGVPDRFSGSKSGTSASLAITGLQSEDEADYYCSSYDGSQSIVFGGGTKLTVLG
8 |  | 39.4 | 15.7 | 0.5 |  |  |  | 7 | 6 | 0.41 | 0.13 |  |  | MOR13361 (antibody, human IgG1, kappa, L234A L235A, V domains shown) VH: QVQLLESGGGLVQPGGSLRLSCAASGFTFSSYAIHWVRQAPGKGLEWVSTIQSSGENKFYADSVKGRFTISRDNSKNTLYLQMNSLRAEDTAVYYCARVMIGYGFDYWGQGTLVTVSS VL: DIQMTQSPSSLSASVGDRVTITCRASQSIFNYLNWYQQKPGKAPKLLIYDSSTLQSGVPSRFSGSGSGTDFTLTISSLQPEDFATYYCHQYSGLLFTFGQGTKVEIKR
9 |  | 13.4 | 8.1 |  |  |  |  |  |  |  |  | 0.07 | 0.22 | MOR9464_N30Q (antibody, human IgG1, lambda, L234A L235A, V domains shown) VH: EVQLVQSGAEVKKPGSSVKVSCKASGGTFQSYAISWVRQAPGQGLEWMGNIIPMTGQTYYAQKFQGRVTITADESTSTAYMELSSLRSEDTAVYYCARAAYHPLVFDNWGQGTLVTVSS VL: DIVLTQPPSVSGAPGQRVTISCSGSSSNIGNHYVNWYQQLPGTAPKLLIYRNNHRPSGVPDRFSGSKSGTSASLAITGLQSEDEADYYCQSWDYSGFSTVFGGGTKLTVLG
10 |  | 19.6 | 12.7 |  |  |  |  |  |  |  |  | 0.11 | 0.29 | MOR9464_N30V (antibody, human IgG1, lambda, L234A L235A, V domains shown) VH: EVQLVQSGAEVKKPGSSVKVSCKASGGTFVSYAISWVRQAPGQGLEWMGNIIPMTGQTYYAQKFQGRVTITADESTSTAYMELSSLRSEDTAVYYCARAAYHPLVFDNWGQGTLVTVSS VL: DIVLTQPPSVSGAPGQRVTISCSGSSSNIGNHYVNWYQQLPGTAPKLLIYRNNHRPSGVPDRFSGSKSGTSASLAITGLQSEDEADYYCQSWDYSGFSTVFGGGTKLTVLG
11 |  | 17.9 | 12.4 |  |  |  |  |  |  |  |  | 0.03 | 0.23 | MOR9464_N30Y (antibody, human IgG1, lambda, L234A L235A, V domains shown) VH: EVQLVQSGAEVKKPGSSVKVSCKASGGTFYSYAISWVRQAPGQGLEWMGNIIPMTGQTYYAQKFQGRVTITADESTSTAYMELSSLRSEDTAVYYCARAAYHPLVFDNWGQGTLVTVSS VL: DIVLTQPPSVSGAPGQRVTISCSGSSSNIGNHYVNWYQQLPGTAPKLLIYRNNHRPSGVPDRFSGSKSGTSASLAITGLQSEDEADYYCQSWDYSGFSTVFGGGTKLTVLG
12 |  | 11 | 10.1 |  |  |  |  |  |  |  |  | 0.04 | 0.47 | MOR9464_N30R (antibody, human IgG1, lambda, L234A L235A, V domains shown) VH: EVQLVQSGAEVKKPGSSVKVSCKASGGTFRSYAISWVRQAPGQGLEWMGNIIPMTGQTYYAQKFQGRVTITADESTSTAYMELSSLRSEDTAVYYCARAAYHPLVFDNWGQGTLVTVSS VL: DIVLTQPPSVSGAPGQRVTISCSGSSSNIGNHYVNWYQQLPGTAPKLLIYRNNHRPSGVPDRFSGSKSGTSASLAITGLQSEDEADYYCQSWDYSGFSTVFGGGTKLTVLG

— patent US20140112915A1 (Novartis, published 2014)
